Experimental data taken from publication PMC5358783, “Structural insights into the regulation of Bacillus subtilis SigW activity by anti-sigma RsiW” (PLoS ONE, 2017).

Target: T1, cytoplasmic domain of Bacillus subtilis anti-sigma RsiW (residues 1-80), reduced, zinc-bound (B. subtilis 168 strain, UniProt Q45588 1-80)
T1 construct: RsiW, anti-sigma-W factor of Bacillus subtilis 168, cytoplasmic domain, residues 1-80; Coordinates one zinc ion through C3, H30, C34 and C37 (CHCC motif); The Hisx6-thioredoxin tag was removed with TEV protease after the first IMAC step; also called RsiW_(cyto); RsiWcyto; not shown: His6, N-terminal, cleaved; thioredoxin, N-terminal, cleaved
T1 sequence (looked up): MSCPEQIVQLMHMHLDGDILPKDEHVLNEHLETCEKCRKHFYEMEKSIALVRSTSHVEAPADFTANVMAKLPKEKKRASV
Assay: SEC-MALS; purified SigW/RsiWcyto complex injected into a Superdex200 analytical column with inline DAWN HELEOS MALLS and Optilab rEX refractive index detectors; molecular weight of the complex approximately 31.5 kDa
Conditions: both partners purified

stoichiometry N: 1 SigW per RsiWcyto
B1: Bacillus subtilis SigW (residues 1-187) (natural protein, B. subtilis 168 strain, UniProt Q45585 1-187, looked up)
chain: MEMMIKKRIKQVKKGDQDAFADIVDIYKDKIYQLCYRMLGNVHEAEDIAQEAFIRAYVNIDSFDINRKFSTWLYRIATNLTIDRIRKKKPDYYLDAEVAGTEGLTMYSQIVADGVLPEDAVVSLELSNTIQQKILKLPDKYRTVIVLKYIDELSLIEIGEILNIPVGTVKTRIHRGREALRKQLRDL
notes: SigW, ECF (group IV) sigma factor of Bacillus subtilis 168, residues 1-187; domains sigmaW2 (residues 3-95) and sigmaW4 (residues 125-187) joined by a disordered loop (96-125); No tag on SigW itself (cloned in MCS2 of pET-DUET1); it is purified through the His-tagged RsiWcyto; A selenomethionine-labelled complex (E. coli B834 (DE3)) was used for phasing only; also called sigma factor SigW; ECF …
